Data: patent US20070190045A1, “Anti-CD3 and antigen-specific immunotherapy to treat autoimmunity” (priority 2004, published 2007)
Read-outs that look alike come from different tables or passages of the source.

Key:
[1] = tested on: NOD mice; conditions: cited from earlier work
[2] = tested on: patients with new onset Type 1 diabetes; test: Phase I/II trial of hOKT3γ1(Ala-Ala) in new onset Type 1 diabetes: C-peptide response to MMTT; format: in vivo, human; conditions: patients with new onset T1D
[3] = tested on: PBMC; test: Inhibitory properties of cells grown in hOKT3γ1(Ala-Ala) and IL-10/IL-2 on PHA-stimulated PBMC; format: cell-based, human; conditions: 10 days with mAb, sorted, 2 weeks IL-10 and IL-2
Procedure: Other cells were cultured in IL-10/IL-2 (FIG. 11B), sorted, and then cultured for an addition 19 days in IL-10/IL-2. Both groups of cells were added to fresh PBMC. Uptake of 3H-thymidine was measured 72 hrs after the addition of PHA.
These cells were then cultured for an additional 2 weeks in IL-10 and IL-2 and then added to PBMC from the same donor and stimulated with PHA.

[4] = tested on: CD4+IL-10+ T cells; test: Induction of CD4+IL-10+ cells in vivo in treated patients (intracellular cytokine staining); parameters: species or system human
From the text: Cells were isolated from patients after treatment with the mAb and stained for intracytoplasmic IL-10 and IFN-γ without further activation ex vivo. IL-10+CD4+ cells were identified in 5/6 patients within 1 week after the last dose of mAb.
2. […] PBMC were harvested and frozen from a patient treated with hOKT3γ1(Ala-Ala) at the conclusion of mAb treatment. These cells, as well as those harvested before mAb treatment were thawed and stained for intracellular cytokines, IL-10 and IFN-γ. Markers were placed around surface molecules CD4 and CD3. Cells harvested from patients after anti-CD3 mAb treatment were producing IL-10 in vivo. […] These induced cells were IFN-γ negative, predominantly CD45RO+, and generally CCR4+. Thirteen percent of these cells produced TGF-β by surface staining.

[5] = tested on: patients with new onset Type 1 diabetes; test: Side effects of hOKT3γ1(Ala-Ala) in the Phase I/II trial (WHO Criteria); format: in vivo, human
From the text: The dosing regimen was modified from a 14-day to a 12-day course after treatment of the first 12 patients.

[6] = tested on: T cells; conditions: cited from earlier work
[7] = tested on: PBMC; test: Induction of regulatory T cells in vitro with OKT3 then IL-10/IL-2; inhibition of PHA-stimulated PBMC proliferation; format: cell-based, human
From the text: See text in Example 4 for details of the experimental procedure. […] In the left panel of FIG. 10A, responder cells alone were stimulated with PHA and the percentage of proliferating cells was 67%. In the right panel of FIG. 10A, responder cells were stimulated with PHA in the presence of cells treated with anti-CD3 mAb/IL-10/IL-2, and the percentage of proliferating cells was 43%. The number of proliferating responder cells (i.e. diluted CFSE (carboxy-fluorescein diacetate, succinimidyl ester)) in the presence of the added cells is shown. […] In the left panel of FIG. 10B, responder cells alone were stimulated with PHA and the percentage of proliferating cells was 50%. In the right panel of FIG. 10B, responder cells were stimulated with PHA in the presence of IL-10/IL-2 cultured cells, and the percentage of proliferating cells was 54%.
3. Treatment with anti-CD3 mAb induces regulatory T cells in vitro: In order to obtain sufficient numbers of cells for studies of functional properties, anti-CD3 mAb has been utilized to expand regulatory T cells in vitro. PBMC were cultured for 10 days with OKT3 mAb and then CD4+ cells were isolated by sorting. They were then cultured for 19 days with IL-10 and IL-2. These cells were then added to cultures of PBMC from the same individual, stimulated with PHA (phytohemagglutinin). […] The majority (94%) of the CD4+ cells that inhibit PBMC proliferation are CCR4+, 46% are CD62L+, and 93% are CD45RO+. About 5% of the cells are GITR+.

[8] = Phase I/II trial, 12 or 14-day regimen
[9] = after OKT3 10 days, IL-10/IL-2 19 days

Substance: insulin B9-23 peptide: peptide comprising amino acids 9-23 of the insulin B chain (SHLVEALYLVCGERG)
- anaphylaxis ([1]; mouse, in vivo): anaphylaxis
- anaphylaxis ([1]; reports in NOD mice (Liu et al. 2002; Pedotti et al. 2003), listed as insulin peptide): fatal anaphylactic reactions

Substance: hOKT3γ1(Ala-Ala): humanized anti-CD3 mAb with the same CDR region as OKT3 and a mutation in the Fc portion to reduce FcR binding
- duration of functional immunologic tolerance after treatment [2]: at least 1 year
- effect of CCR4+ cells from cultures on proliferation of PHA-stimulated PBMC [3]: inhibited proliferation
- induced CD4+IL-10+ cells producing TGF-β by surface staining ([4]; PBMC at conclusion of mAb treatment): Thirteen
- patients in whom IL-10+CD4+ cells were identified ([4]; within 1 week after the last dose of mAb): 5/6
- Arthralgia, Mild [5, 8]: 8%
- Arthralgia, Moderate [5, 8]: 0
- Arthralgia, Severe [5, 8]: 0
- Diarrhea, Mild [5, 8]: 0
- Diarrhea, Moderate [5, 8]: 0
- Diarrhea, Severe [5, 8]: 0
- Dyspnea, Mild [5, 8]: 8%
- Dyspnea, Moderate [5, 8]: 0
- Dyspnea, Severe [5, 8]: 0
- Fever, Mild [5, 8]: 17%
- Fever, Moderate [5, 8]: 58%
- Fever, Severe [5, 8]: 0
- Headache, Mild [5, 8]: 33%
- Headache, Moderate [5, 8]: 0
- Headache, Severe [5, 8]: 0
- Hypotension, Mild [5, 8]: 0
- Hypotension, Moderate [5, 8]: 0
- Hypotension, Severe [5, 8]: 0
- Myalgia, Mild [5, 8]: 17%
- Myalgia, Moderate [5, 8]: 0
- Myalgia, Severe [5, 8]: 0
- Nausea, Mild [5, 8]: 8%
- Nausea, Moderate [5, 8]: 0
- Nausea, Severe [5, 8]: 0
- Rash, Mild [5, 8]: 58%
- Rash, Moderate [5, 8]: 25%
- Rash, Severe [5, 8]: 0
- Vomiting, Mild [5, 8]: 8%
- Vomiting, Moderate [5, 8]: 0
- Vomiting, Severe [5, 8]: 0
- tolerability ([5]; data from patients with T1DM): well tolerated
- cytokine production after activation signal to T cells ([6]; compared with OKT3, Herold et al. 2003): relatively greater production of IL-10 instead of IFN-γ
- T cell activation compared with OKT3 ([6]; in vitro or in vivo, Xu et al. 2000): does not cause the same T cell activation

Substance: rhGAD65: human GAD 65 protein, obtained from Diamyd
- anaphylaxis ([1]; reports in NOD mice (Liu et al. 2002; Pedotti et al. 2003)): fatal anaphylactic reactions

Substance: OKT3 mAb: murine anti-CD3 mAb; in FIG. 10 cells cultured with it, then with IL-10 and IL-2
- percentage of proliferating responder cells ([7]; PHA stimulation in presence of added cultured cells, responder cells alone 67% (FIG. 10A) or 50% (FIG. 10B)): 43%
- inhibitory CD4+ cells that are CCR4+ [7, 9]: 94%
- inhibitory CD4+ cells that are CD45RO+ [7, 9]: 93%
- inhibitory CD4+ cells that are CD62L+ [7, 9]: 46%
- inhibitory CD4+ cells that are GITR+ [7, 9]: About 5%
- effect of added cultured cells on proliferation of PHA-stimulated CD4+ T cells/PBMC ([7]; cells added at ratio 1:5): inhibited proliferation
